“And” between values parts separate entries of the source, which are not always exact repeats. Equal entries are not always repeated.
Biological target: Wild type Cav1.2 channel with EGFP fused to its C-terminus (rabbit) (UniProt P15381)
Experiment: FRET or BRET

Sequence of UniProt P15381 (P15381 whole entry, the tested form may be a part): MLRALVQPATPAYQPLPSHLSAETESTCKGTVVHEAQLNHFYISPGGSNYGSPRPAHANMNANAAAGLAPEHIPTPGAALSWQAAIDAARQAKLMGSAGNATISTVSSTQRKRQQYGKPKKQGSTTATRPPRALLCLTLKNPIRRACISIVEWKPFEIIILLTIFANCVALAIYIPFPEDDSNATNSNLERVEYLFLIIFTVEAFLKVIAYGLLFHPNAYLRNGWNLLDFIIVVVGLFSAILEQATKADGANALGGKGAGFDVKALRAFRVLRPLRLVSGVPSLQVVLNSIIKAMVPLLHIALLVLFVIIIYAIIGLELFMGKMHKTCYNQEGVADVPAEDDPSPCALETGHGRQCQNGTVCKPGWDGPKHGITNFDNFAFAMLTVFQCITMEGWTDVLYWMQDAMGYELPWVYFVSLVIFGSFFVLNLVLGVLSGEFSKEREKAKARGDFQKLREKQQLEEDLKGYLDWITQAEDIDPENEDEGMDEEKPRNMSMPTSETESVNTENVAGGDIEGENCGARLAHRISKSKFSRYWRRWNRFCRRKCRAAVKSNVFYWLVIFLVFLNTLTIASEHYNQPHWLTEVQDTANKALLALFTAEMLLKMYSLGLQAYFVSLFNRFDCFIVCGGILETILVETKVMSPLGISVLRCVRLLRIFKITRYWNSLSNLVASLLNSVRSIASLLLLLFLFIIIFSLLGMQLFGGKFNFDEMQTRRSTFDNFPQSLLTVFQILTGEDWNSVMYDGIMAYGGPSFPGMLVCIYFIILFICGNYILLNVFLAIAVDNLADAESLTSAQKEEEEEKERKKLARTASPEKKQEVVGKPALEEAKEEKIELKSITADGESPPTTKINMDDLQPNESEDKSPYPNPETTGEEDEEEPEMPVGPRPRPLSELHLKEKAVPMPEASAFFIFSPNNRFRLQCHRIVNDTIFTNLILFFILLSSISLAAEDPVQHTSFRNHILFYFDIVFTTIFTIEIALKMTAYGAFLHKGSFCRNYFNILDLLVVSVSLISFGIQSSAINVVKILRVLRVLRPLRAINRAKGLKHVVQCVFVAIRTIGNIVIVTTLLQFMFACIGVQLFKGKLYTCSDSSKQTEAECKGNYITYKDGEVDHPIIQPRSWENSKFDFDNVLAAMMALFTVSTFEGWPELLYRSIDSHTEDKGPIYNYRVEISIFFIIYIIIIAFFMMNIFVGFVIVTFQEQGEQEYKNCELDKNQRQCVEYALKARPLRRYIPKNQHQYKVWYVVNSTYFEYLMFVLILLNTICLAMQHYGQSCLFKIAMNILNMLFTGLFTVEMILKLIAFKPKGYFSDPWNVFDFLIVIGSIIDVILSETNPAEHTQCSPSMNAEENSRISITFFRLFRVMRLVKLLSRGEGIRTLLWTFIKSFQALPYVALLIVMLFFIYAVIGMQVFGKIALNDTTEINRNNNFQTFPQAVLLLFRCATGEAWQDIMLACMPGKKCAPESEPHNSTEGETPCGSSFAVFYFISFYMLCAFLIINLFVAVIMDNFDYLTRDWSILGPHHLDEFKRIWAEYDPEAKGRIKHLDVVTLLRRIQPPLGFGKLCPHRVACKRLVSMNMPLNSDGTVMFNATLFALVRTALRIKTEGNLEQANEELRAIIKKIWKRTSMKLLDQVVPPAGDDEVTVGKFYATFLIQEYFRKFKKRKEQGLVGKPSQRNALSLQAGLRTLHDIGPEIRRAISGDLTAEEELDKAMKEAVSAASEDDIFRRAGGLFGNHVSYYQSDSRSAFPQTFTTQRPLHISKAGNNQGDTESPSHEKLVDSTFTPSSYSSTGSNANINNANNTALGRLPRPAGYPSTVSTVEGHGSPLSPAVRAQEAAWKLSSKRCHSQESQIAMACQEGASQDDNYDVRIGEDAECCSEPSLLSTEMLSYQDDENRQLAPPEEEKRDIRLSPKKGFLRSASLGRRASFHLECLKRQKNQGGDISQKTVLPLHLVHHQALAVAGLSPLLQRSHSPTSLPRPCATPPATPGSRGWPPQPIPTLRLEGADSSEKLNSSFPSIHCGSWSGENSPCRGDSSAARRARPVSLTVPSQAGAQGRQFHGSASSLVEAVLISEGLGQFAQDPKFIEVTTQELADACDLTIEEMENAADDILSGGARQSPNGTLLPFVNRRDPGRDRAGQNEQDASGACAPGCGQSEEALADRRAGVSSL

Calmodulin fused with tag-RFP (from UniProt P0DP23 1-149) (natural protein)
FRET: 0.32 and 0.21 and 0.33
